Experimental data reported in US20140322225A1.

Key:
[1] = molecular target: human recombinant adrenomedullin receptor (CRLR+RAMP3) (human)
[2] = molecular target: ADM (human or mouse, not stated for this control); assay: cell-based or functional assay

EC50 (read off the curve), cAMP formation [1] [nM]	Maximal inhibition of ADM bioactivity (ADM-Bioassay) (%) [2] [%]	Substance
1	–	human adrenomedullin (hADM 1-52) (peptide)
–	0	Non specific mouse IgG (antibody)
